Assay results reported in publication PMC9249733 (Nature Communications, 2022).

What was measured:
[1] = target: T1, biotinylated hepatocyte growth factor receptor (HGFR) (Homo sapiens (assumed; species not …, UniProt P08581, biotin); assay: flow cytometry of antibody-coated beads; IgG (0.076 ug/mL) captured on Protein A Dynabeads overnight; biotinylated HGFR in PBSB at a range of concentrations at 10x molar excess, 3 h, room temperature; detected with streptavidin-AF647; median fluorescence; details: both partners purified
T1 construct: hepatocyte growth factor receptor (c-Met, tyrosine-protein kinase Met); bought biotinylated protein; The library sorting and the scFab measurements on yeast used another construct (extracellular domain as Fc fusion, Acro Biosciences MET-H5256); also called c-Met; tyrosine-protein kinase Met; source: bought: Sino Biological 10692-H27H-B

[2] = target: T1, biotinylated hepatocyte growth factor …; assay: flow cytometry of antibody-coated beads; single point; IgG (15 ug/mL) captured on Protein A Dynabeads overnight at 4 C; 1 nM biotinylated HGFR or 0.1 mg/mL biotinylated ovalbumin in PBSB, 3 h, room temperature; streptavidin-AF647; scores normalised between emibetuzumab (high) and elotuzumab (low); details: both partners purified

T1 sequence (P08581 25-932): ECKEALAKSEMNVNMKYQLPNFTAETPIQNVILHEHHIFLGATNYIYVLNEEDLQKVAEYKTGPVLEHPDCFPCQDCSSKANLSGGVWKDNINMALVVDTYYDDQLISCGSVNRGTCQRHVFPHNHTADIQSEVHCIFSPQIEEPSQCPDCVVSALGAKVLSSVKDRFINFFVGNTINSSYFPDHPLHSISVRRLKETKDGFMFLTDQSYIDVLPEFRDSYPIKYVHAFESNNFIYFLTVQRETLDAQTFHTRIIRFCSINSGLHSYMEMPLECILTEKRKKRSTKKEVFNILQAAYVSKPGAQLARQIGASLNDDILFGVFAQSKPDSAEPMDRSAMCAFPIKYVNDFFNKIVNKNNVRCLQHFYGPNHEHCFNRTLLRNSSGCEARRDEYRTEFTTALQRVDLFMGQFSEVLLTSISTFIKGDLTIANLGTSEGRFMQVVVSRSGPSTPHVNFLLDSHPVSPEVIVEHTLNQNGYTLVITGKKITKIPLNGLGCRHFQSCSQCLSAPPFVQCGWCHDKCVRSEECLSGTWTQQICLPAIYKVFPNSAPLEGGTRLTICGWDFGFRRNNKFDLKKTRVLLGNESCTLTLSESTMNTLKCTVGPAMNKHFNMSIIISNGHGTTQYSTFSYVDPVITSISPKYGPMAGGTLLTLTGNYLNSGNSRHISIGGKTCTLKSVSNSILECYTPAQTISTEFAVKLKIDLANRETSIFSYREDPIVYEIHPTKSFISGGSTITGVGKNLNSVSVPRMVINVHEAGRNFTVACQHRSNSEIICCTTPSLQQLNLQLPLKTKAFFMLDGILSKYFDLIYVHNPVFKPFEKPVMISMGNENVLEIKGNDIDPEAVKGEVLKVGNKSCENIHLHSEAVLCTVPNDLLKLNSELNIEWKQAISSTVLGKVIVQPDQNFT

Binder	EC50 [1] [nM]	antigen binding at 1 nM HGFR relative to wild type [2]
emibetuzumab (wild type), soluble IgG1 (antibody, V domains shown) VH: QVQLVQSGAEVKKPGASVKVSCKASGYTFTDYYMHWVRQAPGQGLEWMGRVNPNRRGTTYNQKFEGRVTMTTDTSTSTAYMELRSLRSDDTAVYYCARANWLDYWGQGTTVTVSS VL: DIQMTQSPSSLSASVGDRVTITCSVSSSVSSIYLHWYQQKPGKAPKLLIYSTSNLASGVPSRFSGSGSGTDFTLTISSLQPEDFATYYCQVYSGYPLTFGGGTKVEIK	4.4	–
EM1, emibetuzumab variant, soluble IgG1 (antibody, V domains shown) VH: QVQLVQSGAEVKKPGASVKVSCKASGYTFTDYYMHWVRQAPGQGLEWMGRVNPNGRGTTYNQKFEGRVTMTTDTSTSTAYMELRSLRSDDTAVYYCARSNLLDDWGQGTTVTVSS VL: DIQMTQSPSSLSASVGDRVTITCSVSSSVSSIYLHWYQQKPGKAPKLLIYSTSNLASGVPSRFSGSGSGTDFTLTISSLQPEDFATYYCQVYSGYPLTFGGGTKVEIK	2.6	1.2 x of wild type
EM2, emibetuzumab variant, soluble IgG1 (antibody, V domains shown) VH: QVQLVQSGAEVKKPGASVKVSCKASGYTFTDYYMHWVRQAPGQGLEWMGRVNPNGRGTTYNQKFEGRVTMTTDTSTSTAYMELRSLRSDDTAVYYCARSNLLEDWGQGTTVTVSS VL: DIQMTQSPSSLSASVGDRVTITCSVSSSVSSIYLHWYQQKPGKAPKLLIYSTSNLASGVPSRFSGSGSGTDFTLTISSLQPEDFATYYCQVYSGYPLTFGGGTKVEIK	2.4	1.28 x of wild type
